In paper PMC5611513, “Structure-Based Prototype Peptides Targeting the Pseudomonas aeruginosa Type VI Secretion System Effector as a Novel Antibacterial Strategy” (Frontiers in Cellular and Infection Microbiology, 2017) one finds Kd and fold reduction in binding affinity against the wild-type peptide data, which are given here for two substances.

Holding throughout (assay): ITC
(ITC needs no label: the signal is the heat of the interaction.)

In experiment [1] the target is TplEi E219A (Pseudomonas aeruginosa) (UniProt Q9I3K3).
Experiment [2] has as its target TplEi R266A (Pseudomonas aeruginosa) (UniProt Q9I3K3).
Experiment [3] deals with TplEi S215A (Pseudomonas aeruginosa) (UniProt Q9I3K3).
For experiment [4], the target named is TplEi (Pseudomonas aeruginosa) (UniProt Q9I3K3).

One may read the Kd as the constant that tells how readily two partners part at equilibrium. Read a high Kd as a looser complex.

On to “A peptides (“L” peptide, TplE 82-108 plus EQVEVDD) (from UniProt Q9I3K2 82-115)”, for which the Kd in experiment [1] turned out to be 35.5 µM; in experiment [2] it was 46.9 µM; in experiment [3] it was 7.8 µM.

““L” peptide W92A (from UniProt Q9I3K2 82-115)”: in experiment [4], the fold reduction in binding affinity against the wild-type peptide is 500 fold.
